Patent US20200216495A1 (ADRX, published 2020)
Several values for one entry are separate records, joined by “and”; a condition that tells them apart may be missing. Identical values can stand only once. Square brackets hold non-standard residues; d marks the D form. Ends that are not written are not given here. dMet(O) = CS(=O)CC[C@@H](N)C(=O)O

These binders were tested against Tau40 P301L protein (human) (assay: cell-based or functional assay).

| Binder | IC50, Tau40 assay (ThT) |
| --- | --- |
| [dF][dK][dI][dR][dI][dH][dY][dH] [fkirihyh] | 2760 nM |
| [dW][dR][dL][dK][dV][dD][dW] [wrlkvdw] | 2700 nM |
| [dW][dR][dL][dT][dI][dH][dW] [wrltihw] | 2760 nM |
| [dW][dR][dL][dR][dI][dF][dW] [wrlrifw] | 2790 nM |
| [dR][dL][dR][dI][dR][dW] [rlrirw] | 2960 nM |
| [dW][dH][dV][dK][dF][dE][dL][dF] [whvkfelf] | 2880 nM |
| [dW][dD][dL][dK][dV][dR][dW] [wdlkvrw] | 2760 nM |
| [dL][dK][dL][dK][dI][dK][dH][dF] [lklkikhf] | 2750 nM |
| [dW][dK][dL][dW][dL][dR][dW][dW] [wklwlrww] | 2940 nM |
| [dL][dK][dI][dR][dI][dH][dA] [lkiriha] | 2920 nM |
| [dL][dK][dI][dMet(O)][dI][dH][dY] [lkixihy] | 2810 nM |
| [dW][dR][dL][dR][dI][dW][dW] [wrlriww] | 3060 nM |
| [dK][dL][dK][dL][dK][dW] [klklkw] | 2970 nM |
| [dL][dK][dI][dA][dI][dH][dY] [lkiaihy] | 2960 nM |
| [dK][dI][dK][dI][dK][dW] [kikikw] | 2920 nM |
| [dL][dK][dI][dY][dI][dH][dY] [lkiyihy] | 2930 nM |
| [dT][dR][dL][dR][dI][dH][dW] [trlrihw] | 2700 nM |
| [dL][dE][dL][dK][dI][dK][dF][dW] [lelkikfw] | 2730 nM and 2850 nM |
| [dW][dK][dL][dV][dV][dW] [wklvvw] | 2810 nM |
| [dW][dR][dI][dR][dI][dR][dW] [wririrw] | 3000 nM |

The binders below were run against Ac-VQIINK-NH2 (SEQ ID NO: 23) (N-terminal acetyl (Ac); C-terminal amide (NH2)) (assay: cell-based or functional assay).

| Binder | VQIINK Inhibition IC50 |
| --- | --- |
| [dW][dR][dL][dK][dV][dR][dA] [wrlkvra] | 20.5 µm |
| [dK][dV][dR][dW][dW][dW][dR][dL] [kvrwwwrl] | 15.2 µm |
| [dW][dR][dL][dK][dT][dR][dW] [wrlktrw] | 8.61 µm |
| [dL][dK][dI][dR][dI][dH][dY] [lkirihy] | 17.6 µm |
| [dL][dK][dR][dR][dI][dH][dY][dH] [lkrrihyh] | 31.8 µm |
| [dL][dK][dA][dR][dI][dH][dY][dH] [lkarihyh] | 10 µm |
| [dR][dL][dK][dI][dR][dW] [rlkirw] | 10.9 µm |
| [dW][dE][dL][dK][dV][dE][dW] [welkvew] | 11 µm |
| [dW][dR][dL][dR][dM][dH][dW] [wrlrmhw] | 8.93 µm |
| [dW][dR][dM][dR][dI][dH][dW] [wrmrihw] | 11.7 µm |
| [dE][dR][dL][dK][dV][dR][dW][dW] [erlkvrww] | 20.4 µm |
| [dA][dK][dI][dR][dI][dH][dY][dH] [akirihyh] | 8.93 µm |
| [dW][dR][dL][dK][dH][dR][dW] [wrlkhrw] | 13.5 µm |
| [dR][dR][dL][dR][dI][dH][dW] [rrlrihw] | 12.1 µm |
| [dI][dR][dI][dH][dY][dH][dL][dK] [irihyhlk] | 8.69 µm |
| [dL][dK][dI][dR][dR][dH][dY][dH] [lkirrhyh] | 10.5 µm |
| [dW][dR][dT][dK][dT][dR][dW] [wrtktrw] | 13.1 µm |
| [dR][dI][dK][dI][dR][dW] [rikirw] | 10.8 µm |
| [dV][dR][dW][dW][dW][dR][dL][dK] [vrwwwrlk] | 9.47 µm |
| [dW][dR][dA][dR][dI][dH][dW] [wrarihw] | 19.1 µm |
| [dW][dF][dL][dR][dI][dH][dW] [wflrihw] | 8.18 µm |
| [dW][dR][dL][dR][dI][dH][dE] [wrlrihe] | 14.5 µm |
| [dE][dR][dL][dR][dI][dH][dW] [erlrihw] | 13.6 µm |
| [dW][dR][dL][dR][dI][dH][dA] [wrlriha] | 9.75 µm |
